The assay has as its target Tissue Factor VIIa (UniProt P13726). Briefly: enzyme inhibition; Tissue Factor VIIa.

B1: recombinant placental bikunin (1-170) from baculovirus/Sf9 cells (protein)
chain: ADRERSIHDFCLVSKVVGRCRASMPRWWYNVTDGSCQLFVYGGCDGNSNNYLTKEECLKKCATVTENATGDLATSRNAADSSVPSAPRRQDSEDHSSDMFNYEEYCTANAVTGPCRASFPRWYFDVERNSCNNFIYGGCRGNKNSYRSEEACMLRCFRQQENPPLPLGSK
modifications: chain 1 pos 30: Asn probably N-glycosylated (no PTH residue at cycle 30), written N; six intrachain disulfides of the two Kunitz domains
For the molecule B1, the inhibitory constant (Ki) was 800 nM.

A word on the Ki: it is the equilibrium dissociation constant of an inhibitor or competing ligand from its target.

The record behind these values is patent publication US7019123.
